According to paper PMC9468158, “Transmembrane helices mediate the formation of a stable ternary complex of b5R, cyt b5, and SCD1” (Communications Biology, 2022):

T1: full-length b5R, released from the linker-cleaved cyt b5-b5R fusion (mouse, UniProt Q9DCN2 1-301)
T1 construct: surmised: cleavage of the linker ENLYFQ/G leaves a G at the N-terminus; no extra residue after the C-terminus of b5R
T1 sequence (looked up): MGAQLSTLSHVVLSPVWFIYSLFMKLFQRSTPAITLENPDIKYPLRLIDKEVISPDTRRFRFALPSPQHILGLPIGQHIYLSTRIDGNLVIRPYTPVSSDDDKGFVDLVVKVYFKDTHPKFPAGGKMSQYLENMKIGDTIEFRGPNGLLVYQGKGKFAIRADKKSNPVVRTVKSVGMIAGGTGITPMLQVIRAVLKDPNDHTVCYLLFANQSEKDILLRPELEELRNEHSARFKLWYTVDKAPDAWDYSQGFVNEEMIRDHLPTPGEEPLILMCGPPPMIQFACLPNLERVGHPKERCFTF

T2: SCD1, released from the linker-cleaved SCD1-cyt b5 fusions (mouse, UniProt P13516 1-355)
T2 construct: stearoyl-CoA desaturase-1 (SCD1), mouse, UniProt P13516; stands for the SCD1 chain of the fusion with full-length cyt b5 (wild type and TM mutants) and of the fusion with the soluble domain of cyt b5; the GFP tag stood at the C-terminus of the fusion; surmised: ENLYFQ is left at the C-terminus after cleavage
T2 sequence (looked up): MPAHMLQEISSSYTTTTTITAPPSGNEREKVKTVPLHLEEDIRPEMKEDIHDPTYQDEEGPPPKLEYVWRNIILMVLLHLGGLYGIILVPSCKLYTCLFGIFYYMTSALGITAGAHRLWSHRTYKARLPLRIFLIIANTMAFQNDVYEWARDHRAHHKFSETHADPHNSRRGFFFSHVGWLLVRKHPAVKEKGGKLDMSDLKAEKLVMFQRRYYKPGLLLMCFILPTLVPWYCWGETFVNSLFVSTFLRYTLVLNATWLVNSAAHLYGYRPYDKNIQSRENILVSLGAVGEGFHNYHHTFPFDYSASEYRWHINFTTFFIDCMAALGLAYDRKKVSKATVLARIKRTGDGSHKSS


How the values were obtained:
[1] = biological target: T1, full-length b5R, released from the …; experiment: SEC; TM mutants in the linker-cleavable fusions, purified and cleaved by TEV protease; SRE-10C SEC-300 (Sepax) on HPLC, FPLC buffer, 0.75 mL/min; heme absorbance (413 nm by the results, 423 nm by the methods) gives the ratio of heterodimer to monomeric cyt b5; conditions: both partners purified
[2] = biological target: T2, SCD1, released from the linker-cleaved …; experiment: as above; conditions: both partners purified

Row | percent dissociation of the complex [2] | binding result [1] | Binder | also measured
1 | – | – | cyt b5 A124W, released from the linker-cleaved cyt b5-b5R-TEV chimera (natural protein, mouse, UniProt P56395 1-134, looked up, cytochrome b5, mouse, UniProt P56395; as m6 with the mutation; source: High Five cells (Bac-to-Bac), purified as a fusion with b5R, cleaved by TEV protease) MAGQSDKDVKYYTLEEIQKHKDSKSTWVILHHKVYDLTKFLEEHPGGEEVLREQAGGDATENFEDVGHSTDARELSKTYIIGELHPDDRSKIAKPSDTLITTVESNSSWWTNWVIPAISALAVWLMYRLYMAED | percent dissociation of the complex [1]: ~40%
2 | ~10% | – | cyt b5 R128A, released from the linker-cleaved SCD1-cyt b5-TEV chimera (natural protein, mouse, UniProt P56395 1-134, looked up, cytochrome b5, mouse, UniProt P56395; as m11 with the mutation; source: HEK 293S (BacMam), purified as a fusion with SCD1, cleaved by TEV protease; not shown: GFP, C-terminal, cleaved) MAGQSDKDVKYYTLEEIQKHKDSKSTWVILHHKVYDLTKFLEEHPGGEEVLREQAGGDATENFEDVGHSTDARELSKTYIIGELHPDDRSKIAKPSDTLITTVESNSSWWTNWVIPAISALAVALMYALYMAED | –
3 | – | binds | cyt b5 V123W, released from the linker-cleaved cyt b5-b5R-TEV chimera (natural protein, mouse, UniProt P56395 1-134, looked up, cytochrome b5, mouse, UniProt P56395; as m6 with the mutation; source: High Five cells (Bac-to-Bac), purified as a fusion with b5R, cleaved by TEV protease) MAGQSDKDVKYYTLEEIQKHKDSKSTWVILHHKVYDLTKFLEEHPGGEEVLREQAGGDATENFEDVGHSTDARELSKTYIIGELHPDDRSKIAKPSDTLITTVESNSSWWTNWVIPAISALAWALMYRLYMAED | –
4 | ~40% | – | cyt b5 L121W, released from the linker-cleaved SCD1-cyt b5-TEV chimera (natural protein, mouse, UniProt P56395 1-134, looked up, cytochrome b5, mouse, UniProt P56395; as m11 with the mutation; source: HEK 293S (BacMam), purified as a fusion with SCD1, cleaved by TEV protease; not shown: GFP, C-terminal, cleaved) MAGQSDKDVKYYTLEEIQKHKDSKSTWVILHHKVYDLTKFLEEHPGGEEVLREQAGGDATENFEDVGHSTDARELSKTYIIGELHPDDRSKIAKPSDTLITTVESNSSWWTNWVIPAISAWAVALMYRLYMAED | –
5 | – | binds | cyt b5 Y127A, released from the linker-cleaved cyt b5-b5R-TEV chimera (natural protein, mouse, UniProt P56395 1-134, looked up, cytochrome b5, mouse, UniProt P56395; as m6 with the mutation; source: High Five cells (Bac-to-Bac), purified as a fusion with b5R, cleaved by TEV protease) MAGQSDKDVKYYTLEEIQKHKDSKSTWVILHHKVYDLTKFLEEHPGGEEVLREQAGGDATENFEDVGHSTDARELSKTYIIGELHPDDRSKIAKPSDTLITTVESNSSWWTNWVIPAISALAVALMARLYMAED | –
6 | ~50% | – | cyt b5 M126A, released from the linker-cleaved SCD1-cyt b5-TEV chimera (natural protein, mouse, UniProt P56395 1-134, looked up, cytochrome b5, mouse, UniProt P56395; as m11 with the mutation; source: HEK 293S (BacMam), purified as a fusion with SCD1, cleaved by TEV protease; not shown: GFP, C-terminal, cleaved) MAGQSDKDVKYYTLEEIQKHKDSKSTWVILHHKVYDLTKFLEEHPGGEEVLREQAGGDATENFEDVGHSTDARELSKTYIIGELHPDDRSKIAKPSDTLITTVESNSSWWTNWVIPAISALAVALAYRLYMAED | –
7 | ~40% | – | cyt b5 A122W, released from the linker-cleaved SCD1-cyt b5-TEV chimera (natural protein, mouse, UniProt P56395 1-134, looked up, cytochrome b5, mouse, UniProt P56395; as m11 with the mutation; source: HEK 293S (BacMam), purified as a fusion with SCD1, cleaved by TEV protease; not shown: GFP, C-terminal, cleaved) MAGQSDKDVKYYTLEEIQKHKDSKSTWVILHHKVYDLTKFLEEHPGGEEVLREQAGGDATENFEDVGHSTDARELSKTYIIGELHPDDRSKIAKPSDTLITTVESNSSWWTNWVIPAISALWVALMYRLYMAED | –
8 | – | binds | cyt b5 L121W, released from the linker-cleaved cyt b5-b5R-TEV chimera (natural protein, mouse, UniProt P56395 1-134, looked up, cytochrome b5, mouse, UniProt P56395; as m6 with the mutation; source: High Five cells (Bac-to-Bac), purified as a fusion with b5R, cleaved by TEV protease) MAGQSDKDVKYYTLEEIQKHKDSKSTWVILHHKVYDLTKFLEEHPGGEEVLREQAGGDATENFEDVGHSTDARELSKTYIIGELHPDDRSKIAKPSDTLITTVESNSSWWTNWVIPAISAWAVALMYRLYMAED | –
9 | – | binds | cyt b5 S119A, released from the linker-cleaved cyt b5-b5R-TEV chimera (natural protein, mouse, UniProt P56395 1-134, looked up, cytochrome b5, mouse, UniProt P56395; as m6 with the mutation; source: High Five cells (Bac-to-Bac), purified as a fusion with b5R, cleaved by TEV protease) MAGQSDKDVKYYTLEEIQKHKDSKSTWVILHHKVYDLTKFLEEHPGGEEVLREQAGGDATENFEDVGHSTDARELSKTYIIGELHPDDRSKIAKPSDTLITTVESNSSWWTNWVIPAIAALAVALMYRLYMAED | –
10 | – | binds | cyt b5 A122W, released from the linker-cleaved cyt b5-b5R-TEV chimera (natural protein, mouse, UniProt P56395 1-134, looked up, cytochrome b5, mouse, UniProt P56395; as m6 with the mutation; source: High Five cells (Bac-to-Bac), purified as a fusion with b5R, cleaved by TEV protease) MAGQSDKDVKYYTLEEIQKHKDSKSTWVILHHKVYDLTKFLEEHPGGEEVLREQAGGDATENFEDVGHSTDARELSKTYIIGELHPDDRSKIAKPSDTLITTVESNSSWWTNWVIPAISALWVALMYRLYMAED | –
